Results on six molecules are retold here after US12624118B2, “Trispecific binding molecules against BCMA and uses thereof” (Novartis AG, priority 2019, dated 2026).

Data set [1] in a line: Thermal stability by differential scanning fluorimetry (DSF). Format: physicochemical. To be noted: Sypro Orange; 25° C. to 95° C. at 0.5° C./minute. The protocol: Disulfide stabilized variants were assessed for improved thermal stability using both differential scanning calorimetry (DSC) and differential scanning fluorimetry (DSF) using standard techniques. For DSF, 1-3 ug of each construct was add to 1× Sypro Orange (Thermo-Fisher) in 25 ul total volume in 96-well PCR plate. Using a Bio-Rad CFX96 RT-PCR system equipped with C1000 Thermal Cycler, the temperature was increased from 25° C. to 95° C. at 0.5° C./minute and the fluorescence monitored. The manufacturer-supplied software was used to determine Tm.

Data set [2] can be described thus: Thermal stability by differential scanning calorimetry (DSC). Format: physicochemical. To be noted: HBS, 0.5 mg/mL; 25° C. to 100° C. at 1° C./minute. The protocol:
For DSC, all samples were dialyzed into HEPES-buffered saline (HBS) and diluted to final concentration of 0.5 mg/mL. Tm and Tonset were determined using a MicroCal VP-Capillary DSC system (Malvern) by increasing temperature from 25° C. to 100° C. at 1° C./minute with a filtering period of 2 seconds and a mid-gain setting.

The subject of data set [3] is BCMA+ multiple myeloma cell lines. The experiment in a line: In vitro RTCC assays of anti-BCMA x anti-CD3 bispecific antibodies. It counts as cell-based. The conditions noted are these: tested as anti-BCMA x anti-CD3 bispecific antibodies having VH and VL sequences of the binder. From the text:
(§1) Anti-BCMA x anti-CD3 bispecific antibodies having VH and VL sequences of AB1, AB2, and AB3 were produced.

In data set [4] the test system is KMS11-Luc multiple myeloma orthotopic tumor. The experiment in a line: KMS11-Luc multiple myeloma orthotopic tumor model. It counts as in vivo. The conditions noted are these: tested as anti-BCMA x anti-CD3 bispecific antibodies having VH and VL sequences of the binder; NSG mice.
Description: as §1

The target of data set [5] is T1, recombinant human CD2 (Homo sapiens, UniProt P06729).
T1 construct: transiently produced and purified from HEK293 cells along with the CD2 extracellular domain; made in house; host or cells: HEK293 / HEK293F cells (transient expression)
T1 sequence (P06729 with tags, fused parts or gaps): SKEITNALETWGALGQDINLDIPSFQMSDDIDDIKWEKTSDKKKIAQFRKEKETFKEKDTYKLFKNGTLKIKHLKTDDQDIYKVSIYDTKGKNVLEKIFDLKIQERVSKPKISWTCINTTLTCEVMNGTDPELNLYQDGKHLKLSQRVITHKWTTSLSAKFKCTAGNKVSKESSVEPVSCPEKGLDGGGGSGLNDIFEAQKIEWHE
The data set can be described thus: Isothermal calorimetry (ITC) binding affinity of CD58 variants. To be noted: recombinant human CD2 (100 μM) titrated into 10 μM CD58 variant in HBS, apparent KD. The protocol: To ensure the binding affinity remained uncompromised by the additional of the stabilizing disulfide variance, isothermal calorimetry (ITC) was performed on the resulting recombinant CD58 proteins to determine their apparent KD and binding stoicheometry (n) to recombinant human CD2.
Briefly, recombinant human CD2 and recombinant human CD58 variants were dialyzed into HEPES-buffered saline (HBS). CD2 was diluted to final concentration of 100 μM, CD58 variants were diluted to 10 μM. CD2 was titrated into 10 μM of CD58 variants via multiple injections and ΔH (kcal/mole) determined using a MicroCal VP-ITC isothermal titration calorimeter (Malvern). Titrations of CD2 into HBS were used as a reference and KD and n determined from the resulting data.

Where a chain is given by its changes, count along the chain named.

B1: IgV V54C_G88C: CD58 domain 1 with V54 and G88 replaced by cysteines to form a disulfide bridge (protein)
chain: SQQIYGVVYGNVTFHVPSNVPLKECLWKKQKDKVAELENSEFRAFSSFKNRVYLDTVSCSLTIYNLTSSDEDEYEMESPNITDTMKFFLYVLESGGGGSHHHHHHHH
Turning to B1, in data set [1], the “Tm (° C.) By Differential Scanning Fluorimetry (DSF)” value amounted to 76.5 °C. Also, in data set [2], the “Tm (° C.) By Differential Scanning Calorimetry (DSC)” value was found to be 80.9 °C and the “Tmonset (° C.) By Differential Scanning Calorimetry (DSC)” value was found to be 66.7 °C.

B2: IgV V45C_M105C: CD58 domain 1 with V45 and M105 replaced by cysteines to form a disulfide bridge (protein)
chain: B1 chain with V16C, C25V, C59G, M76C
As for B2, in data set [1], the “Tm (° C.) By Differential Scanning Fluorimetry (DSF)” value was 48.5 °C. In data set [2], the “Tm (° C.) By Differential Scanning Calorimetry (DSC)” value was found to be 66.8 °C and the “Tmonset (° C.) By Differential Scanning Calorimetry (DSC)” value stood at 43.9 °C.

B3: IgV V45C_M114C: CD58 domain 1 with V45 and M114 replaced by cysteines to form a disulfide bridge (protein)
chain: B1 chain with V16C, C25V, C59G, M85C
Consider B3, for which, in data set [1], the “Tm (° C.) By Differential Scanning Fluorimetry (DSF)” value turned out to be 63.5 °C. For the same molecule, in data set [2], the “Tm (° C.) By Differential Scanning Calorimetry (DSC)” value came out at 72.5 °C and the “Tmonset (° C.) By Differential Scanning Calorimetry (DSC)” value turned out to be 49.6 °C.

B4: CD58_IgV: IgV domain (domain 1) of human CD58, without stabilizing disulfide (protein)
chain: B1 chain with C25V, C59G
In the case of B4, the “Tm (° C.) By Differential Scanning Fluorimetry (DSF)” value in data set [1] is 48.5 °C. Moreover, in data set [2], the “Tm (° C.) By Differential Scanning Calorimetry (DSC)” value was found to be 60.9 °C and the “Tmonset (° C.) By Differential Scanning Calorimetry (DSC)” value came out at 46.3 °C.

B5: AB3: anti-BCMA binder, AB3 Family, derived from parental PI-61 (antibody, V domains shown)
VH: QVQLVESGGGVVQPGRSLRLSCAASGFTVSSYGMHWVRQAPGKGLEWVAVISYTGSNKYYADSVKGRFTISRDNSKNTLYLQMNSLRAEDTAVYYCGGSGYALHDDYYGLDVWGQGTLVTVSS
VL: QSALTQPASVSGSPGQSITISCTGTSSDVGGYNYVSWYQQHPGKAPKLMIYDVSNRLRGVSNRFSGSKSGNTASLTISGLQAEDEADYYCSSYTSSSALYVFGSGTKVTVL
B5: the “activity in in vitro RTCC assays” value in data set [3] is given as “active”. Also, in data set [4], the anti-tumor activity entry is listed as “anti-tumor activity”.

B6: CD58 Full ECD: recombinant human CD58 full extracellular domain with C-terminal 8×his tag (protein)
chain: SQQIYGVVYGNVTFHVPSNVPLKEVLWKKQKDKVAELENSEFRAFSSFKNRVYLDTVSGSLTIYNLTSSDEDEYEMESPNITDTMKFFLYVLESLPSPTLTCALTNGSIEVQCMIPEHYNSHRGLIMYSWDCPMEQCKRNSTSIYFKMENDLPQKIQCTLSNPLFNTTSSIILTTCIPSSGHSRHRGGGGSHHHHHHHH
modifications: C-terminal 8xHis tag
notes: recombinant human CD58 full extracellular domain with C-terminal 8×his tag
As for B6, the “Tm (° C.) By Differential Scanning Fluorimetry (DSF)” value in data set [1] was found to be 59.5 °C. In data set [2], the “Tm (° C.) By Differential Scanning Calorimetry (DSC)” value came out at 65.0 °C and the “Tmonset (° C.) By Differential Scanning Calorimetry (DSC)” value was 48.8 °C. In addition, the Kd in data set [5] was 570 nM.
